Measured values reported in the supplement of paper PMC12042874.
± gives the uncertainty stated by the source.

Assay: amyloid nucleation score (Sup35N fusion, yeast selection) (log enrichment); library NNK2; higher = more nucleation; inactive = no reads after selection
Method in brief: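 Peptides of 20 random codons, each fused to Sup35N, were expressed in psi-negative yeast. Cells were induced with 100 μM copper sulfate for 24 hours and grown 7 days at 30°C on medium lacking adenine and uracil, and plasmid inserts before and after selection were Illumina-sequenced. Nucleation scores are DiMSum log enrichments of output over input reads, centred on the mode score of non-aggregating sequences, and sequences under 100 input reads were excluded.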

Row | Substance | amyloid nucleation score
1 | ISDLFYANLLVIASNMVT | -1.46 ± 0.78
2 | VRKGHPYALELLSCYVGCQP | 1.18 ± 0.25
3 | FGIQGWLFSNSWFLILVFFL | inactive
4 | HNLNKTGDKRFYTLFVSSPR | 0.012 ± 1
5 | FLYQEPSSCVTTAKISGLMA | inactive
6 | YLWDTEDYMRMWAKRWEKAR | 0.259 ± 0.56
7 | FLMRDFGMWFLFSNLLYITL | -0.628 ± 0.48
8 | VTLGVWRPAFFAFWTPRKQY | -0.35 ± 1.1
9 | FSVSSLVAVMNNTHLVVSGG | 2.34 ± 0.081
10 | SSYSDLIQLNSNWMWCICLL | 8.101 ± 0.06
11 | CLLHGCHYLSSYLKFSQSWL | inactive
12 | DNKYGFMIVIYTYSAGDAEE | 2.62 ± 0.061
13 | KRSTNWKDC | -1.07 ± 0.64
14 | SVVEEKIGEFTWSWDTDSAN | 0.568 ± 0.66
15 | KALCLYNVVRKKRCT | 0.152 ± 0.5
16 | VRITVSSSLALWLVWLSHYR | -0.167 ± 0.27
17 | SSNNMEIIYVFFLCREAQKL | -0.78 ± 1.1
18 | SFWDRGFNIRQ | 6.145 ± 0.038
19 | AFESKAPGRSSLVGIACSYS | -0.48 ± 0.48
20 | GLRYIS | -0.102 ± 0.5
21 | PMICEHAGHSGWH | 1.11 ± 0.22
22 | VHRLRMGRVWFDKDSDVVGK | 0.148 ± 1
23 | AHHCVGYCSHIFQDPRGRVM | 0.22 ± 0.44

Row | Substance | amyloid nucleation score
24 | GCSVCDMTF | 0.073 ± 0.53
25 | AVATGNTCSPVSVRKSLGQS | 1.87 ± 0.13
26 | TPVYPRRSIVLICSISMLRK | 4.12 ± 0.064
27 | TDQDT | 0.516 ± 0.32
28 | VTKHLGEARKLVLDQRLHWG | 5.601 ± 0.047
29 | NVRIVYRPAGPFG | -0.347 ± 0.39
30 | VLPLGHWMAFMTREVCGADM | 0.514 ± 0.17
31 | WWKYLVICLWARMALKGFSL | inactive
32 | HFMSYAAWAREWSVEPQ | 0.967 ± 0.66
33 | MNVGCIDQFYCMWRCNIFWP | 7.678 ± 0.055
34 | LFHFGNCSRIRGWGICVTSL | -0.506 ± 0.55
35 | ELNMRAYRKMSKGSYSKNSG | -0.462 ± 0.76
36 | MVHLRGIDVMSILDSYCESG | 0.544 ± 0.52
37 | LDPCGYVVSSEGMLVIGVPI | 0.209 ± 0.39
38 | HVNWVKKSSWLIGT | 0.62 ± 0.74
39 | YVWRYVRPLVLAIDCVVAR | 0.001 ± 0.42
40 | SRKPSILNLRLALVSG | 0.43 ± 0.33
41 | NRFYIWRSDRNYTLVACRSK | -0.237 ± 0.79
42 | CSFYRSWVLTNWSANVVFTW | -0.217 ± 0.39
43 | RFKSNNRPCWHCHPLLGFRT | 1.06 ± 0.43
44 | LRADLYCFACLNAPSC | 5.89 ± 0.091
45 | VMVDMGGWHEAWLVTSIRWS | 0.889 ± 0.3
46 | YRLFWFNC | 1.74 ± 0.11

Row | Substance | amyloid nucleation score
47 | NDFFIFSQEYPYKRMFLQLL | -1.35 ± 0.53
48 | MFKWHYWVEHNFSTRDNICA | inactive
49 | CVGGGRQKCEHNVMITLMTF | 4.22 ± 0.056
50 | SISCSADFVFNCSHGHNTVP | 6.17 ± 0.069
51 | WSKEFEIGSNHSKSNTRCGR | 0.244 ± 0.46
52 | SYFYPCLRNLYLPLWWRSHS | -0.515 ± 0.38
53 | KYGNFVFTFLLINPF | inactive
54 | NMYLDVRRSDGICGHIY | -1.28 ± 1
55 | VAFNGYLY | -0.89 ± 0.48
56 | GSYHFHASNTD | -0.555 ± 0.79
57 | LSLALDRQELAVHLFVLTCY | 0.829 ± 0.57
58 | SFNEMILHLIPRSCSLKKYI | -0.441 ± 0.28
59 | CVIYVKVIIMPVSIVDVGSV | -0.351 ± 0.48
60 | ICSKRIFFSA | -0.772 ± 1.1
61 | ARTRLALWGLQRRGSPVFDN | 0.157 ± 0.63
62 | PTSDALLKCSAPFCSVRPVP | 0.138 ± 0.76
63 | YYDFVVNGGDGLSIEYNSRG | 0.405 ± 0.74
64 | PAVWVN | -0.34 ± 0.56
65 | VSSLMMVGNRFLIISWTESV | 2.55 ± 0.092
66 | GSAHTCSTS | 0.077 ± 0.3
67 | DLITLMKSAIPQPNMRLNSL | 0.105 ± 0.57
68 | DRFQMGCLWGNNEYLLSAMA | -1.97 ± 0.75
69 | FRCIDFR | 0.674 ± 0.65
